Measurements as given in patent US20050261472A1, “Binding moieties for fibrin” (Dyax Corp., priority 1999, published 2005).
Ends that are not written are not given here.

T1: fibrin (Homo sapiens, UniProt P02671+P02675+P02679)
T1 construct: Thrombin cleavage at the Arg16-Arg17 bond in the Ax chains and at the Arg14-Gly15 bond on the BP chains releases fibrinopeptides A and B; host or cells: fibrinogen solution clotted with thrombin in 96-well plates and dried at 37 C
T1 sequence (P02671 36-629 limits assumed): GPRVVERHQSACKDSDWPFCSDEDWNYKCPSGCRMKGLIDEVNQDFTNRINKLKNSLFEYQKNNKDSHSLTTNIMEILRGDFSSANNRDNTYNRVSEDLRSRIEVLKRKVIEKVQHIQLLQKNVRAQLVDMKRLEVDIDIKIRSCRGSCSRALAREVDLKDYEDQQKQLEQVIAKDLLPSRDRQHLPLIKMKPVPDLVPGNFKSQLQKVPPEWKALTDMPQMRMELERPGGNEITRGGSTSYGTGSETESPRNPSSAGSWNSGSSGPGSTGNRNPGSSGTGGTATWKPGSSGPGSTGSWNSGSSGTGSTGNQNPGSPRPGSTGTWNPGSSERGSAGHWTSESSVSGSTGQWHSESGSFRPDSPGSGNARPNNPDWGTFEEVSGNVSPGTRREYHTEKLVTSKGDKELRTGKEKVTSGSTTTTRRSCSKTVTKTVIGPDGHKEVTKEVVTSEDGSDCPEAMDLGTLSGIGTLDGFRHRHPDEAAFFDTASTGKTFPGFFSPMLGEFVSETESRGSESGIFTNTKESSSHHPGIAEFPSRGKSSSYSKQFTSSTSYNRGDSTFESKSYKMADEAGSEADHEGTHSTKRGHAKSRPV
T1 sequence (P02675 45-491 limits assumed): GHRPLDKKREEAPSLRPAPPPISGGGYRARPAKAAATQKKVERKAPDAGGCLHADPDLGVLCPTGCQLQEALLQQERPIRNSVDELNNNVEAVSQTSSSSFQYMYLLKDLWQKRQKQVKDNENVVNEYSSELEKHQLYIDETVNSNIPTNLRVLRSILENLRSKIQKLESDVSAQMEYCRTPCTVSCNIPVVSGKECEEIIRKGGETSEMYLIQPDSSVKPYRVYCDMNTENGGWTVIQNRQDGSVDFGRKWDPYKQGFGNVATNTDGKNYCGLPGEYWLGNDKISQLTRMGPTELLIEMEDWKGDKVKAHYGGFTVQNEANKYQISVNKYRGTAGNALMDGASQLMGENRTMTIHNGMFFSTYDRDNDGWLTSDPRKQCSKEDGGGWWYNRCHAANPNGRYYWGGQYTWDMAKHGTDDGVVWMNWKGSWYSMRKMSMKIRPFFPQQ
T1 sequence (P02679 27-437 isoform P02679-2 limits assumed): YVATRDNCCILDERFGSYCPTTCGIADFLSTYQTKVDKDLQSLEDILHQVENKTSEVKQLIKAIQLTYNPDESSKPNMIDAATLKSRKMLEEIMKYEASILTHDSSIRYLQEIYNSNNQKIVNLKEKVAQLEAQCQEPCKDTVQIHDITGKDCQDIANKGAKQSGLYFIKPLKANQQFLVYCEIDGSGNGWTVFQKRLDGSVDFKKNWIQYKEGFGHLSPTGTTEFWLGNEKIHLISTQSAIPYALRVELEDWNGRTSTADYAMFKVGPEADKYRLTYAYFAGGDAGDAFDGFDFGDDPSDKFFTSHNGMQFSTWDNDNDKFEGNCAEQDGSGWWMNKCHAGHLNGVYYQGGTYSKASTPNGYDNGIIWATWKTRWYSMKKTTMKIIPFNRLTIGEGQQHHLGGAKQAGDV

T2: fibrinogen (UniProt P02671 20-629; P02675 31-491; P02679 27-437, limits assumed)
T2 sequence (looked up) 1: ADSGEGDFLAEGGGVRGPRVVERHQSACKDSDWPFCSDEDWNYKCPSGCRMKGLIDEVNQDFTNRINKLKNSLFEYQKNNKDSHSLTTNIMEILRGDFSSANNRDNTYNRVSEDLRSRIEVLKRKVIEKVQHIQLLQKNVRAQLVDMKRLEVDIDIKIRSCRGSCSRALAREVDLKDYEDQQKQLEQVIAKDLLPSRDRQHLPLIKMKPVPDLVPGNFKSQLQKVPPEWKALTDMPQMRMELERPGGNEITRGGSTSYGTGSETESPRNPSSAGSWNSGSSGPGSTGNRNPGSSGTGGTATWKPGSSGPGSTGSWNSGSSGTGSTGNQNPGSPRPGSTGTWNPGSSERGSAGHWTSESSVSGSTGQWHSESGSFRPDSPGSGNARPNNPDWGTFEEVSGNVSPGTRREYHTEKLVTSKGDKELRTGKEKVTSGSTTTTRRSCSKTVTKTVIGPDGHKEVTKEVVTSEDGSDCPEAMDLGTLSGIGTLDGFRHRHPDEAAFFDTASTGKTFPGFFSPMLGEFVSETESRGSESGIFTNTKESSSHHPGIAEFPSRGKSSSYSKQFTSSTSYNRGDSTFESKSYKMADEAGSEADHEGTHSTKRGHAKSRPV
T2 sequence (looked up) 2: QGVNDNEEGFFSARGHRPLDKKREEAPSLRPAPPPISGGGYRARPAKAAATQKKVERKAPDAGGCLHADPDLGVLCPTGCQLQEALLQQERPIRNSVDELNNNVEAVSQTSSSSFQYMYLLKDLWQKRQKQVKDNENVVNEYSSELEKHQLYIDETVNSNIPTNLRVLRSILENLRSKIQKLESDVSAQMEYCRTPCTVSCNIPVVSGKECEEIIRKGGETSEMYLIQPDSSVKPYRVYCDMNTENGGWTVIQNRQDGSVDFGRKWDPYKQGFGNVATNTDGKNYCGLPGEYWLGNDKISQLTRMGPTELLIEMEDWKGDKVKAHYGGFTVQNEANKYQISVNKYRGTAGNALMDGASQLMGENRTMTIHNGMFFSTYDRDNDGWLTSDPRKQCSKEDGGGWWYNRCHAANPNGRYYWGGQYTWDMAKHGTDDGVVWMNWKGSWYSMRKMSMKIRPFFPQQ
T2 sequence (looked up) 3: T1 sequence (P02679 27-437 isoform P02679-2 limits assumed)

B1: TN7 isolate 2, phage-displayed LSCDYYGTCLR (peptide)
peptide: LSCDYYGTCLR
modifications: not fully specified (bridges); cysteine pairing not given here
notes: Tested as a phage clone; not shown: not specified
B2: TN7 isolate 9, phage-displayed RSCNYYGTCLH (peptide)
peptide: RSCNYYGTCLH
modifications: not fully specified (bridges); cysteine pairing not given here
notes: as for B1
B3: TN7 isolate 10, phage-displayed RPCNYYGTCLH (peptide)
peptide: RPCNYYGTCLH
modifications: not fully specified (bridges); cysteine pairing not given here
notes: as for B1
B4: TN7 isolate 11, phage-displayed HDCQYYGTCLH (peptide)
peptide: HDCQYYGTCLH
modifications: not fully specified (bridges); cysteine pairing not given here
notes: as for B1
B5: TN7 isolate 1, phage-displayed RPCDYYGTCFD (peptide)
peptide: RPCDYYGTCFD
modifications: not fully specified (bridges); cysteine pairing not given here
notes: as for B1
B6: TN7 isolate 3, phage-displayed LPCDYYGTCLD (peptide)
peptide: LPCDYYGTCLD
notes: as for B1
B7: TN7 isolate 8, phage-displayed DGCHYYGTCLH (peptide)
peptide: DGCHYYGTCLH
modifications: not fully specified (bridges); cysteine pairing not given here
notes: as for B1
B8: TN7 isolate 4, phage-displayed DPCSYYGTCLH (peptide)
peptide: DPCSYYGTCLH
modifications: not fully specified (bridges); cysteine pairing not given here
notes: as for B1
B9: TN7 isolate 5, phage-displayed LPCSYYGTCLH (peptide)
peptide: LPCSYYGTCLH
modifications: not fully specified (bridges); cysteine pairing not given here
notes: as for B1
B10: TN7 isolate 6, phage-displayed FACHYYGTCLH (peptide)
peptide: FACHYYGTCLH
modifications: not fully specified (bridges); cysteine pairing not given here
notes: as for B1
B11: TN7 isolate 7, phage-displayed LACHYYGTCLH (peptide)
peptide: LACHYYGTCLH
modifications: not fully specified (bridges); cysteine pairing not given here
notes: as for B1
B12: TN7 isolate 12, phage-displayed FSCWYSLHCHR (peptide)
peptide: FSCWYSLHCHR
modifications: not fully specified (bridges); cysteine pairing not given here
notes: as for B1

These molecules were tested against T3, human serum albumin (human, UniProt P02768 25-609) (assay: phage ELISA on immobilised HSA). Settings: not given.
T3 construct: also called HSA
Protocol: (§1) After five rounds of selection, the eluted phage were propagated and a portion plated to isolate phage plaques arising from individual clones. Ninety such clones were selected randomly, propagated, and tested individually for binding to fibrin in a dried fibrin plate assay. Dried fibrin plates were prepared as described above for the library screening. Phage samples (˜10⁹ phage each) were incubated in the dried fibrin plate wells in binding buffer (50 mM Tris, 150 mM NaCl, 2 mM CaCl₂, 0.05% Tween-20) containing 0.1% HSA. After 1 hour, the plates were washed 5 times with binding buffer. Anti-M13 antibody conjugated to horseradish peroxidase (Pharmacia) was added at 1/5000 dilution in binding buffer to the wells and incubated with the fibrin for 1 hour. The wells were again washed 5 times with binding buffer and the presence of the antibody/phage/fibrin complex was measured with HRP calorimetric reagents (3,3′,5,5′-tetrarnethylbenzidine (TMB) and H₂O₂). A high absorbance at 595 nm (due to oxidized TMB) was indicative of a tight phage/fibrin interaction, and phage clones corresponding to those wells were identified as bearing fibrin-binding moieties.
(§2) These fibrin-binding positive clones were subjected to several secondary ELISA assays. These assays followed a similar protocol to that detailed above for the dried fibrin ELISA assay, the only variations being the method of target immobilization and the omission of HSA from binding and wash buffers. A screen against DD(E) acted as a further confirmation of fibrin binding activity. An ELISA screen against fibrinogen (immobilized to the plate by the biotin/streptavidin protocol used for DD(E)) was a check against fibrinogen binding and confirmed that the negative selection procedure detailed in Example 2 had been effective. Finally, ELISAs to assay binding to immobilized HSA (passively bound to the polystyrene plate) and a target-free microtiter plate were controls to eliminate phage that bound promiscuously or nonspecifically.

T3 sequence (P02768 25-609 limits assumed): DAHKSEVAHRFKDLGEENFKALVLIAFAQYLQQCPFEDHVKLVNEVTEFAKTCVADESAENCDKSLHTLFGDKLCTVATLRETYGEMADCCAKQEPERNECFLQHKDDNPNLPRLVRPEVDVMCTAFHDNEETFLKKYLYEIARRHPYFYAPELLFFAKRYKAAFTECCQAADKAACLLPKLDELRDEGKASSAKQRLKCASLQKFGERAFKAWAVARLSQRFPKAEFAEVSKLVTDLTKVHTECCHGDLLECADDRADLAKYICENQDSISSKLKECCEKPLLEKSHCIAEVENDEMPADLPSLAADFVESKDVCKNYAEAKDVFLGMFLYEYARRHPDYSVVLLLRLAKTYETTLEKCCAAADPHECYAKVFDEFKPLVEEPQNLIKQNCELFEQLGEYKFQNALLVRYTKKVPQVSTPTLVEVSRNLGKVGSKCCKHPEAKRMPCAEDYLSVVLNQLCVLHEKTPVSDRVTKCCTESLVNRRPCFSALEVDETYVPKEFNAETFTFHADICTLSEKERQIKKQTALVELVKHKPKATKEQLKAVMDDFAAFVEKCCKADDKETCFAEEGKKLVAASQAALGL

Molecule | binding result
B1 | no binding
B2 | no binding
B3 | no binding
B4 | no binding
B5 | no binding
B6 | no binding
B7 | no binding
B8 | no binding
B9 | no binding
B10 | no binding
B11 | no binding
B12 | no binding

These molecules were tested against T1, fibrin (assay: dried fibrin plate ELISA of phage isolates). Settings: phage isolates from TN7 library; symbols not defined.
Assay type: binding
Protocol: For screening libraries to isolate binding moieties for fibrin, two fibrin targets, i.e., synthetic fibrin clots and then a soluble fibrin fragment, DD(E), were prepared. To prepare fibrin for screening, dilute fibrin clots were formed in the wells of a 96-well plate, dried down to a thin layer, and then rehydrated prior to library screening. In a typical procedure, a 0.15 mg/ml fibrinogen solution was prepared in TBS buffer (50 mM Tris, 150 mM NaCl, pH 7.4). A solution containing 2 U/ml thrombin, 10 mM CaCl2, and 5 mM ε-aminocaproic acid in TBS was prepared. The fibrinogen solution and thrombin solution were mixed 1:1 in the wells of a 96-well plate, aliquoting 25 μL of each solution in each well (total volume=50 μL). The plates were evaporated to dryness by incubating them at 37° C. overnight. Just before a phage library was added to the dried fibrin target, the fibrin wells were washed three times for 10 minutes with phage blocking buffer (TBS containing 2 mM CaCl2, 0.1% Tween-20, and 0.1% human serum albumin (HSA)).
as §1, with “(˜10^9” for “(˜10⁹”, “CaCl2,” for “CaCl₂,”, “H2O2).” for “H₂O₂).”
The amino acid sequence data from these phage isolates were sorted according to the degree of similarity and response in the fibrin ELISA assay.

Molecule | relative binding
4 (YYGT; recurrent motif among synthetic fibrin binding peptides) [compound 4] | + + +
5 (RSCNYYGTCLH; synthetic fibrin binding peptide) [compound 5] | + + +

The molecules below were run against T2, fibrinogen (assay: phage ELISA on immobilised fibrinogen). Settings: not given.
Protocol: as §1, §2

Molecule | binding result
B1 | no binding
B2 | no binding
B3 | no binding
B4 | no binding
B5 | no binding
B7 | no binding
B8 | no binding
B9 | no binding
B10 | no binding
B11 | no binding
B12 | no binding
